# Results as given in the Human Domainome abundance scans (Beltran et al. 2025).
# ± gives the uncertainty stated by the source.
# B1: Far upstream element-binding protein 2, residues 142 to 214; numbered along this chain, Q92945 (parent)
# chain: RTSMTEEYRVPDGMVGLIIGRGGEQINKIQQDSGCKVQISPDSGGLPERSVSLTGAPESVQKAKMMLDDIVSR
# Variants of: B1
# Test: abundance fitness (aPCA) (normalised: wild type 0, dead -1); higher = more abundant; growth selection in yeast, the domain comes from the species named
# Conditions: Homo sapiens
row,Variant,abundance fitness
1,RTSMTEEYRVPDGMVGLIIGRGGMQINKIQQDSGCKVQISPDSGGLPERSVSLTGAPESVQKAKMMLDDIVSR [E24M],-0.059 ± 0.069
2,RTSMTEEYRVPDGMVGLIIGRGGSQINKIQQDSGCKVQISPDSGGLPERSVSLTGAPESVQKAKMMLDDIVSR [E24S],-0.076 ± 0.047
3,RTSMTEEYRVPDGMVGLIIGRGGTQINKIQQDSGCKVQISPDSGGLPERSVSLTGAPESVQKAKMMLDDIVSR [E24T],-0.071 ± 0.058
4,RTSMTEEYRRPDGMVGLIIGRGGEQINKIQQDSGCKVQISPDSGGLPERSVSLTGAPESVQKAKMMLDDIVSR [V10R],-0.741 ± 0.044
5,RTSMTEEYRVPDGMVGLIIGRGGEQINKIQQDSGCKVQISPDSGGLPERSVSLTGAPESVQKAKMMADDIVSR [L67A],-0.5 ± 0.045
6,RQSMTEEYRVPDGMVGLIIGRGGEQINKIQQDSGCKVQISPDSGGLPERSVSLTGAPESVQKAKMMLDDIVSR [T2Q],-0.421 ± 0.057
7,RTSMTEEYRVPDGMVGLIIGRGGEQINKIQQDSGCKVQISPDSGGLPERSVSLTGAPESVQKATMMLDDIVSR [K64T],-0.445 ± 0.058
8,RTSMTEEYRVPDGMVGLIIGRGYEQINKIQQDSGCKVQISPDSGGLPERSVSLTGAPESVQKAKMMLDDIVSR [G23Y],-0.393 ± 0.2
9,RTSMTEEYRVPDGMVGLIIGRGGEQINKIQQDSGCKVQISPDSGGLPEHSVSLTGAPESVQKAKMMLDDIVSR [R49H],0.025 ± 0.089
10,RTSMTEEYRVPDGMVGLIIGRGGEQINKICQDSGCKVQISPDSGGLPERSVSLTGAPESVQKAKMMLDDIVSR [Q30C],-0.12 ± 0.069
11,RTSMTEEYRVPDGMVGLIIGRGGEQINKIRQDSGCKVQISPDSGGLPERSVSLTGAPESVQKAKMMLDDIVSR [Q30R],-0.066 ± 0.038
12,RTSMTEEYRVPDGMVGLIIGRGGEQINKIQQDSGCKVQISPDSGGLPERSVSLTGAPESVQKLKMMLDDIVSR [A63L],-1.46 ± 0.13
13,RTSMTEEYRVPDGMVGLIIGRGGEQINKIQQDSGCKVQISPDSGGLPERSVSLTGAPESVQKNKMMLDDIVSR [A63N],-0.661 ± 0.18
14,RTSMTEEYRVPDGMVGLIIGRGGEQINKIQQDSGCKVQISPDSGGLPERSVSLTGAPESVQKDKMMLDDIVSR [A63D],-0.666 ± 0.14
15,RTSMTEENRVPDGMVGLIIGRGGEQINKIQQDSGCKVQISPDSGGLPERSVSLTGAPESVQKAKMMLDDIVSR [Y8N],-0.536 ± 0.082
16,RTSMTEEYRVPDGMVGLIIGRGGEQINKIQQDSGCKVQISPDSGGLPERSVFLTGAPESVQKAKMMLDDIVSR [S52F],0.007 ± 0.074
17,RTSMTEEYRVFDGMVGLIIGRGGEQINKIQQDSGCKVQISPDSGGLPERSVSLTGAPESVQKAKMMLDDIVSR [P11F],-1.07 ± 0.16
18,RTSMTEEYRVNDGMVGLIIGRGGEQINKIQQDSGCKVQISPDSGGLPERSVSLTGAPESVQKAKMMLDDIVSR [P11N],-0.371 ± 0.069
19,RTSMTEFYRVPDGMVGLIIGRGGEQINKIQQDSGCKVQISPDSGGLPERSVSLTGAPESVQKAKMMLDDIVSR [E7F],0.074 ± 0.073

row,Variant,abundance fitness
1,RTSMTEEYRVPDGMVGLIIGRGGEQINKIQQDSGCKVQISPDSGGLPERSVSLNGAPESVQKAKMMLDDIVSR [T54N],-0.327 ± 0.088
2,RTSMTEEYRVPDGMVGLIIGRGGEQINKIQQDSGCKVQISPDSGGLPERSVSLFGAPESVQKAKMMLDDIVSR [T54F],-0.278 ± 0.089
3,RTSMTEEYRVPDGMVGLIIGRGGEQINKIQQDSGCKVQISPDSGGLPERSVSLIGAPESVQKAKMMLDDIVSR [T54I],-0.205 ± 0.078
4,RTSMTEEYRVPDGMVGLIIGRGGEQINKIQQDSGCKVQISPDSGGLPERSVSLCGAPESVQKAKMMLDDIVSR [T54C],-0.2 ± 0.068
5,RTWMTEEYRVPDGMVGLIIGRGGEQINKIQQDSGCKVQISPDSGGLPERSVSLTGAPESVQKAKMMLDDIVSR [S3W],0.05 ± 0.048
6,RTEMTEEYRVPDGMVGLIIGRGGEQINKIQQDSGCKVQISPDSGGLPERSVSLTGAPESVQKAKMMLDDIVSR [S3E],0.151 ± 0.048
7,RTSMTEEYRVPDGMVGLIIGRGGEQINKIQQDSGCKVQISPDSGGLPERSVSLTGAPYSVQKAKMMLDDIVSR [E58Y],-0.203 ± 0.1
8,RTSMTEEYRVPDMMVGLIIGRGGEQINKIQQDSGCKVQISPDSGGLPERSVSLTGAPESVQKAKMMLDDIVSR [G13M],-0.052 ± 0.055
9,RTSMTEEYRVPDYMVGLIIGRGGEQINKIQQDSGCKVQISPDSGGLPERSVSLTGAPESVQKAKMMLDDIVSR [G13Y],-0.005 ± 0.091
10,RTSMTEEYRVPDGMVGLIIGRGGEQINKIQQDSGCKFQISPDSGGLPERSVSLTGAPESVQKAKMMLDDIVSR [V37F],-0.677 ± 0.1
11,RTSMTEEYRVPDGMVGLIIGRGGEQINKIQQDSGCKVQISPDSGGLPERSVSLTGAPESVQKAKMMLNDIVSR [D68N],-0.007 ± 0.061
12,RTSMTEEYRVPDGMVGLIIGRGGEQINKIQQDSGCKVQISPDSGGLPERSVSLTGAPESVQKAKMMLDDEVSR [I70E],-0.416 ± 0.055
13,RTSMTEEYRVPDGMVGLIIGRGGEQINKIQQDSGCKVQISPDSGGLPERSVSLTGAPESVQMAKMMLDDIVSR [K62M],-0.068 ± 0.057
14,RTSMTEEYRVPDGMVGLIIGRGGEQINKIQQDSGCKVQISPDSGGLPERSVSLTQAPESVQKAKMMLDDIVSR [G55Q],-0.875 ± 0.098
15,RTSMTEEYRVPDGMVGLIIGRGGEQINKIQQDSGCKVQISPDSGGLPERSVSLTWAPESVQKAKMMLDDIVSR [G55W],-1.83 ± 0.19
16,RTSMTEEYRVPDGMVGLIIGRGGEQINKIQQDSGCKVQISPDSGGLPERSVSFTGAPESVQKAKMMLDDIVSR [L53F],-0.491 ± 0.11
17,RTSMTEEYRVPDGMVGLIIGRGGEQINKIQQDSGCKVQISPDSGGLPERSVSYTGAPESVQKAKMMLDDIVSR [L53Y],-1.04 ± 0.23
18,RTSMTEEYRVPDGMVGLIIGRGGEQINKIQQDSGCKVQISPDSGGLPERRVSLTGAPESVQKAKMMLDDIVSR [S50R],0.018 ± 0.042
19,RTSMTEEYRVPDGMVGLIIGRGGEQINKIQQDSGCKVQISPDSGGLPERGVSLTGAPESVQKAKMMLDDIVSR [S50G],-0.071 ± 0.043
